The values that follow come from PMC8660775.

The test addresses T1, Adiponectin receptor 1 (ADIPOR1), endogenous in iPSC-derived RPE (human (endogenous in iPSC-derived RPE)) (UniProt Q96A54).
T1 sequence: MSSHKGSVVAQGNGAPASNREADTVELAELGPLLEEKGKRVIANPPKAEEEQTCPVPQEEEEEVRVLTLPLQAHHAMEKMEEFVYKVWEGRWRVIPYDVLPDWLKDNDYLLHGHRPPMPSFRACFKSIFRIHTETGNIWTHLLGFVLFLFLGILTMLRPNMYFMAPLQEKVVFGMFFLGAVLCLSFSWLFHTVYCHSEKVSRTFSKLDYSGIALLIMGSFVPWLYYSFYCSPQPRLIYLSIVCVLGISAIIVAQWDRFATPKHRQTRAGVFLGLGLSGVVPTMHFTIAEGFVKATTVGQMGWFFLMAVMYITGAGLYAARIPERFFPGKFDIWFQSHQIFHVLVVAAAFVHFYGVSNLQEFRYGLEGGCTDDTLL

“recombinant CTRP5 globular domain (domain or fragment)” registered a pAMPK (pT172) levels by ELISA in healthy-iRPE in serum-deprived medium, 0.2 µg/mL gCTRP5 for 30 min of 20 % decrease.

B1: recombinant CTRP5 full length (ligand)
chain: SPPLDDNKIPSLCPGHPGLPGTPGHHGSQGLPGRDGRDGRDGAPGAPGEKGEGGRPGLPGPRGDPGPRGEAGPAGPTGPAGECSVPPRSAFSAKRSESRVPPPSDAPLPFDRVLVNEQGHYDAVTGKFTCQVPGVYYFAVHATVYRASLQFDLVKNGESIASFFQFFGGWPKPASLSGGAMVRLEPEDQVWVQVGVGDYIGIYASIKTDSTFSGFLVYSDWHSSPVFA
Turning to B1, the pAMPK (pT172) levels by ELISA in healthy-iRPE in serum-free medium, recombinant full-length CTRP5 at 0.2, 2 and 25 µg/mL worked out at 50 % reduction.
